Laboratory results reported in the supplement of paper PMC5998384.

Experiments:
HeLa Kyoto [1] = assay: solubility change mitosis vs G1/S (difference of NP-40 vs SDS log2 ratios) (log2 ratio difference); higher = more soluble in mitosis
HeLa Kyoto [2] = assay: thermal stability score vs G1/S (z-score of summed log2 fold changes over temperatures); higher = more thermally stable than in G1/S
HeLa Kyoto [3] = assay: solubility in G1/S (NP-40 vs SDS abundance) (log2 ratio); higher = more soluble; conditions: cell cycle stage: G1/S
HeLa Kyoto [4] = assay: melting temperature (median over replicates), in situ; higher = more thermally stable
[5] = cell cycle stage: early G1 (4.5 h after nocodazole release)
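For melting temperature (median over replicates), in situ in this document: HeLa Kyoto cells synchronized by double thymidine or nocodazole block, proteins quantified by TMT10plex mass spectrometry, three independent biological replicates.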
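For solubility change mitosis vs G1/S (difference of NP-40 vs SDS log2 ratios) in this document: synchronized HeLa Kyoto cells (double thymidine block for G1/S, nocodazole release for mitosis), protein amounts in NP-40 versus SDS lysates quantified by mass spectrometry, three biological replicates.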
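For solubility in G1/S (NP-40 vs SDS abundance) in this document: HeLa Kyoto cells arrested at G1/S by double thymidine block, proteins quantified by TMT10plex mass spectrometry in mild NP-40 versus SDS extracts, three biological replicates.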
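For thermal stability score vs G1/S (z-score of summed log2 fold changes over temperatures) in this document: synchronized HeLa Kyoto cells, proteins quantified by TMT10plex mass spectrometry, three biological replicates, mitosis taken 0.5 h after nocodazole release, G1/S directly after double thymidine block.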

Chain of CHMP5 (chain, as listed by the source): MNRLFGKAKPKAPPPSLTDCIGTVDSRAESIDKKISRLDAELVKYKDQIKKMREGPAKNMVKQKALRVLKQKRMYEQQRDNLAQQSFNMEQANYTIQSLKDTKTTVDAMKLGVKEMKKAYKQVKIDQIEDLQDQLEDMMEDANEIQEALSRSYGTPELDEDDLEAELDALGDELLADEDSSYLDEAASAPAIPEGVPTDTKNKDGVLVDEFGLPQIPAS

Substance	solubility change mitosis (log2) (HeLa Kyoto [1])	thermal stability score (HeLa Kyoto [2]; [5])	thermal stability score (HeLa Kyoto [2]; cell cycle stage: mitosis)	solubility in G1/S (log2) (HeLa Kyoto [3])	melting temperature (HeLa Kyoto [4]; cell cycle stage: G1/S)	melting temperature (HeLa Kyoto [4]; cell cycle stage: mitosis)
MAGIIKKQILKHLSRFTKNLSPDKINLSTLKGEGQLTNLELDEEVLQNVLELPTWLAITRVYCNRASIRIQWTKLKTHPICLCLDKVEVEMKTCEDPRPPNGQSPIALASGQSEYGFAEKVVEGMFIIVNSITIKIHSKAFHASFELWQLQGYSVNPNWQQSDLRLTRITDPCRGEVLTFKEITWQTLRIEADATDNGDQDPVTTPLRLITNQGRIQIALKRRTKDCNVISSKLMFLLDDLLWVLTDSQLKAMMKYAESLSEAMEKSAHQRKSLAPEPVQITPPAPSAQQSWAQAFGGSQGNSNSSSSRLSQYFEKFDVKESSYHLLISRLDLHICDDSQSREPGVSANRLMGGAMQLTFRKMAFDYYPFHWAGDSCKHWVRHCEAMETRGQWAQKLVMEFQSKMEKWHEETGLKPPWHLGVDSLFRRKADSLSSPRKNPLERSPSQGRQPAFQPPAWNRLRSSCMVVRVDDLDIHQVSTAGQPSKKPSTLLSCSRKLHNLPTQVSAIHIEFTEYYFPDNQELPVPCPNLYIQLNGLTFTMDPVSLLWGNLFCLDLYRSLEQFKAIYKLEDSSQKDEHLDIRLDAFWLKVSFPLEKRERAELHRPQALVFSASGMIATNTRHAPHCSCSDLQSLFRGFAAAEFFHSNYDHFPKVPGGFSLLHMLFLHHAFQMDSCLPQPNTLPPQRPKASWDLWSVHFTQISLDFEGTENFKGHTLNFVAPFPLSIWACLPLRWQQAQARKLLLASEGRLKPSASFGSPVQSEALAPDSMSHPRSKTEHDLKSLSGLTEVMEILKEGSSGMDNKGPLTELEDVADVHMLVHSPAHVRVRLDHYQYLALLRLKEVLQRLQEQLTKDTESMTGSPLQNQTACIGVLFPSAEVALLMHPAPGAVDADSAGSDSTSLVDSELSPSEDRELKSDASSDQGPASPEKVLEESSIENQDVSQERPHSNGELQDSGPLAQQLAGKGHEAVESLQAKKLSRTQASSSPAALKPPAGRETAVNGQGELIPLKNIEGELSSAIHMTKDATKEALHATMDLTKEAVSLTKDAFSLGRDRMTSTMHKMLSLPPAKEPMAKTDEGVAAPVSGGAARLRFFSMKRTVSQQSFDGVSLDSSGPEDRISVDSDGSDSFVMLLESESGPESVPPGSLSNVSDNAGVQGSPLVNNYGQGSPAANSSVSPSGEDLIFHPVSVLVLKVNEVSFGIEVRGEDLTVALQAEELTLQQLGTVGLWQFLHGQCPGTCFQESSTLKTGHIRPAVGLRFEVGPGAAVHSPLASQNGFLHLLLHGCDLELLTSVLSGLGPFLEDEEIPVVVPMQIELLNSSITLKDDIPPIYPTSPGPIPITLAMEHVVLKRSDDGVFHIGAAAQDKPSAEVLKSEKRQPPKEQVFLVPTGEVFEQQVKELPILQKELIETKQALANANQDKEKLLQEIRKYNPFFEL [UHRF1BP1]	-0.154	-1.63	-1.87	-0.0773	54.1 °C	53.5 °C
CHMP5	0.751	-3.8	-3.3	0.437	55.2 °C	52.2 °C
MAAGGRMEDGSLDITQSIEDDPLLDAQLLPHHSLQAHFRPRFHPLPTVIIVNLLWFIHLVFVVLAFLTGVLCSYPNPNEDKCPGNYTNPLKVQTVIILGKVILWILHLLLECYIQYHHSKIRNRGYNLIYRSTRHLKRLALMIQSSGNTVLLLILCMQHSFPEPGRLYLDLILAILALELICSLICLLIYTVKIRRFNKAKPEPDILEEEKIYAYPSNITSETGFRTISSLEEIVEKQGDTIEYLKRHNALLSKRLLALTSSDLGCQPSRT [TMEM192]	-0.241	0.271	-1.67	0.0852	55.6 °C	55.9 °C
MEVLAAETTSQQERLQAIAEKRKRQAEIENKRRQLEDERRQLQHLKSKALRERWLLEGTPSSASEGDEDLRRQMQDDEQKTRLLEDSVSRLEKEIEVLERGDSAPATAKENAAAPSPVRAPAPSPAKEERKTEVVMNSQQTPVGTPKDKRVSNTPLRTVDGSPMMKAAMYSVEITVEKDKVTGETRVLSSTTLLPRQPLPLGIKVYEDETKVVHAVDGTAENGIHPLSSSEVDELIHKADEVTLSEAGSTAGAAETRGAVEGAARTTPSRREITGVQAQPGEATSGPPGIQPGQEPPVTMIFMGYQNVEDEAETKKVLGLQDTITAELVVIEDAAEPKEPAPPNGSAAEPPTEAASREENQAGPEATTSDPQDLDMKKHRCKCCSIM [PALM]	0.116	-0.779	-1.02	0.0461	55.2 °C	57 °C
